# Measured values reported in paper PMC5551644 (Biochemistry, 2016).
# Like-named read-outs stand apart in the source and are kept apart here.
# What was measured:
# Experiment in all cases: SPR
# [1] = molecular target: T1, TGF-β type II receptor extracellular domain (UniProt P37173 23-166)
# [2] = molecular target: T1, TGF-β type II receptor extracellular …; remark: listed apart in the source
# [3] = molecular target: T1, TGF-β type II receptor extracellular …; remark: listed apart in the source
# T1 sequence (P37173 23-166): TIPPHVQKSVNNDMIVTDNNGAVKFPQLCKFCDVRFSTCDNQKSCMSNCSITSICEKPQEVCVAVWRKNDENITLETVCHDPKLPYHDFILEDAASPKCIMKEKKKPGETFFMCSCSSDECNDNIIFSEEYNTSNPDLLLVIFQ
binder,measurement,setting,value
"Transforming growth factor β2 (TGF-β2), recombinant human (ligand, UniProt P61812 303-414, looked up, biotinylated for SPR (EZ-Link Amine-PEG3-biotin with EDC/Sulfo-NHS; for the experiments of Table S1 sulfo-NHS-LC-LC-Biotin)) ALDAAYCFRNVQDNCCLRPLYIDFKRDLGWKWIHEPKGYNANFCAGACPYLWSSDTQHSRVLSLYNTINPEASASPCCVSQDLEPLTILYYIGKTPKIEQLSNMIVKSCKCS",Kd,[1],9.4 ± 2.2 µM
same,Kd,[2],4.6 ± 0.7 µM
same,Kd,[3],2.9 ± 1.1 µM
